Assay results from patent EP3502685A1.

B1: Anti-[TRISP][B7] (antibody, V domains shown)
VH: AVTLDESGGGLQTPRGGLSLVCKASGYTFSSHNMAWVRQAPGKGLEFVAGISNTGSFTLYGAAVKGRATISRDNGQSTVRLQLNNLRAEDTGTYYCAKHAGVGLYSIDAWGHGTEVIVSS
VL: ALTQPSSVSANLGGTVKITCSGGTSDYGWYQQKAPGSAPVTLIYDNTNRPSDIPSRFSGSLSGSTNTLTITGVQAEDEAVYFCGSADRTYAGVFGAGTTLTVL
B2: Anti-[TRISP][C9] (antibody, V domains shown)
VH: AVTLDESGGGLQTPGGALSLVCKASGFSISSYSMQWVRQAPGKGLEWVAGIYYDGNTWYAPAVKGRATISRDNGQSTVRLRLNNLRAEDTATYFCAKYAGGYSIDAWGHGTEVIVSS
VL: ALTQPSSVSANPGETVKITCSGSSGSYGWYQQKSPGSGPVTVIYYNDKRPSDIPSRFSGSASGSTATLTITGVQAEDEAVYFCGGYDSSTYVGIFGAGTTLTVL

Molecular target: T. spiralis E/S antigen

| Binder | detection limit |
| --- | --- |
| B1 | 6 ng/mL |
| B2 | 6 ng/mL |
